Experimental data taken from paper PMC4854385, “The Caenorhabditis elegans Protein FIC-1 Is an AMPylase That Covalently Modifies Heat-Shock 70 Family Proteins, Translation Elongation Factors and Histones” (PLoS Genetics, 2016).
Substitutions are numbered along the chain they refer to. Names may count otherwise.

B1: FIC-1_(134-508) E274G/I298D (domain or fragment, C. elegans, UniProt Q23544 134-508, looked up)
chain: DEKRENDPAKVKEAILAAKAAGRSRKDGNLERAMTIMEHAMALAPTNPQILIEMGQIREMHNELVEADQCYVKALAYDPGNSEALVLRARTTPLVSAIDRKMLRSVHDLRDEFNHLQHSTALRRMMRETYFLYVYHTVAIGGNTLSLGQTRAILESGMVIPGKSDREHNEVIGMDAALRFLNCSLLSKEHDEISIDDILEMHRRVLGNADPVEAGRIRTTQVYVGRFTPVSPEYVMEQLKDIVDWLNDESTLTIDPIERAAIAHYKLVLVHPFTDGNGRTARLLLNLIMMRSGFPPVILPVETRAEYYASLHVANLGDLRPFVRYVAKHSEASIQRYIGAMKTSSDNILNSGDSKLTPEESEVSEKIEAECRAGN
B2: FIC-1_(134-508) E274G (domain or fragment, C. elegans, UniProt Q23544 134-508, looked up)
chain: B1 chain with D165I
notes: C. elegans Fic protein FIC-1, residues 134-508, constitutively active mutant; transmembrane helix and membrane proximal domain excluded; Non-cleavable N-terminal 6x His tag; also called FIC-1 E274G; source: E. coli LOBSTR-RIL(DE3), purified (Ni-Sepharose, size-exclusion chromatography); not shown: His6, N-terminal, kept
B3: FIC-1_(134-508) (domain or fragment, C. elegans, UniProt Q23544 134-508, looked up)
chain: B1 chain with G141E, D165I
notes: C. elegans Fic protein FIC-1, residues 134-508; transmembrane helix and membrane proximal domain excluded; also called FIC-1 wild type; FIC-1 wildtype (wt); source: E. coli LOBSTR-RIL(DE3), purified (Ni-Sepharose, size-exclusion chromatography); not shown: His6, N-terminal, kept

What was measured:
[1] = biological target: the molecule itself; test: cell-based or functional assay
[2] = biological target: the molecule itself; test: crystal structure; hanging drop vapor diffusion, 18°C, 0.1 M MES pH 6.5, 1.1 M ammonium sulfate; two molecules in the asymmetric unit

| Protein | self-AMPylation of FIC-1 E274G/I298D relative to FIC-1 E274G (in vitro AMPylation with α33P-ATP, autoradiography) [1] [%] | target (histone H3) AMPylation by FIC-1 E274G/I298D relative to FIC-1 E274G (in vitro AMPylation with α33P-ATP, autoradiography) [1] [%] | binding result [2] |
| --- | --- | --- | --- |
| B1 | 46 | 11 | – |
| B2 | – | – | binds |
| B3 | – | – | binds |
